± gives the uncertainty stated by the source.
Assay: self-splicing fitness, log relative to wild type (ln ratio); higher = more splicing; Tetrahymena group I intron in knt gene, E. coli kanamycin selection, DiMSum; sequences stand for … in CUCUCU…GGAGGGAAAAGUUAUCAGGCAUGCACCUGGUAGCUAGUCUUUAAACCAAUAGAUUGCAUCGGUUUAAAAGGCAAGACCGUCAAAUUGCGGGAAAGGGGUCAACAGCCGUUCAGUACCAAGUCUCAGGGGAAACUUUGAGAUGGCCUUGCAAAGGGUAUGGUAAUAAGCUGACGGACAUGGUCCUAACCACGCAGCCAAGUCCUAAGUCAACAGAUCUUCUGUUGAUAUGGAUGCAGUUCACAGACUAAAUGUCGGUCGGGGAAGAUGUAUUCUUCUCAUAAGAUAUAGUCGGACCUCUCCUUAAUGGGAGCUAGCGGAUGAAGUGAUGCAACACUGGAGCCGCUGGGAACUAAUUUGUAUGCGAAAGUAUAUUGAUUAGUUUUGGAGUACUCGUGGUCG
How it was run: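 DiMSum derived fitness as the error-weighted combination of fold changes across replicates, kanamycin versus no kanamycin, normalised to wild type. E. coli BL21(DE3) held the library, which randomised all eight P1ex-region intron nucleotides within the knt kanamycin-resistance gene on pET-22b(+). Six replicate transformations grew overnight at 37°C or 30°C on LB agar with or without 25 μg/mL kanamycin, also containing 100 μg/mL carbenicillin, 50 μM IPTG and 0.2% rhamnose, and pooled colonies were amplicon-sequenced on an Illumina HiSeq 2500.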

Sequence | self-splicing fitness (ln) (30 °C) | self-splicing fitness (ln) (37 °C)
UCUUAGCAAUAUUACGAUGU | -1.95 ± 0.11 | -0.623 ± 0.13
AUAUAGCAAUAUUACGUCCC | -1.01 ± 0.17 | 0.139 ± 0.32
UGUGAGCAAUAUUACGGCAU | -3.25 ± 0.28 | -1.53 ± 0.15
GGGCAGCAAUAUUACGUACA | -0.35 ± 0.084 | -0.0196 ± 0.1
CGCCAGCAAUAUUACGAGAC | -3.23 ± 0.33 | -3.54 ± 0.46
CUUGAGCAAUAUUACGUGCG | -2.22 ± 0.13 | -0.809 ± 0.14
UUAUAGCAAUAUUACGGUCC | -2.8 ± 0.21 | -2.93 ± 0.29
GGUCAGCAAUAUUACGACAC | 0.184 ± 0.32 | -0.0653 ± 0.25
CGAUAGCAAUAUUACGCAGC | -4.01 ± 0.36 | -1.34 ± 0.24
AUGUAGCAAUAUUACGGUAA | -2.15 ± 0.23 | -1.36 ± 0.17
CCCAAGCAAUAUUACGUCAU | -2.95 ± 0.14 | -2.74 ± 0.13
AGCUAGCAAUAUUACGACCA | -0.512 ± 0.17 | -0.124 ± 0.17
UAGCAGCAAUAUUACGAGUC | -4.81 ± 0.34 | -2.22 ± 0.22
AACAAGCAAUAUUACGCGCA | -0.604 ± 0.066 | 0.104 ± 0.094
CGGUAGCAAUAUUACGUCUC | -2.46 ± 0.12 | -1.86 ± 0.13
CACCAGCAAUAUUACGAAUU | -3.18 ± 0.15 | -2.92 ± 0.17
UCGCAGCAAUAUUACGUUUC | -3.87 ± 0.2 | -1.66 ± 0.12
CGUUAGCAAUAUUACGUAUG | -2.12 ± 0.097 | -0.357 ± 0.097
AAAGAGCAAUAUUACGCUUA | -2.74 ± 0.31 | -3.02 ± 0.23
GUGGAGCAAUAUUACGCUGG | -3.52 ± 0.37 | -2.41 ± 0.33
GGAGAGCAAUAUUACGAAGA | -3.05 ± 0.44 | -1.59 ± 0.39
AGAUAGCAAUAUUACGAUCG | 0.112 ± 0.058 | 0.0462 ± 0.1
CAACAGCAAUAUUACGGUAG | -0.633 ± 0.059 | -0.746 ± 0.068
AUCGAGCAAUAUUACGGCGG | -2.61 ± 0.14 | -1.36 ± 0.14
GGUUAGCAAUAUUACGAUGA | -0.915 ± 0.12 | -0.286 ± 0.13

Sequence | self-splicing fitness (ln) (30 °C) | self-splicing fitness (ln) (37 °C)
GGGUAGCAAUAUUACGAUGG | -2.86 ± 0.24 | -2.65 ± 0.37
GUCCAGCAAUAUUACGGGCA | -2.25 ± 0.21 | -1.85 ± 0.18
UAAUAGCAAUAUUACGCGCU | 0.173 ± 0.2 | -0.565 ± 0.18
UACAAGCAAUAUUACGUCAG | -2.54 ± 0.14 | -2 ± 0.15
GCUCAGCAAUAUUACGAUUA | -0.516 ± 0.072 | -0.287 ± 0.08
CAUAAGCAAUAUUACGGGUU | -3.37 ± 0.21 | -3.73 ± 0.24
GCGGAGCAAUAUUACGGUAG | -2.77 ± 0.23 | –
CGUCAGCAAUAUUACGACAG | -0.576 ± 0.097 | 0.297 ± 0.13
UCGCAGCAAUAUUACGUUCC | -2.7 ± 0.23 | –
AUUCAGCAAUAUUACGUCCG | -0.866 ± 0.2 | -1.33 ± 0.24
CUUUAGCAAUAUUACGCGGA | -2.48 ± 0.27 | -2.81 ± 0.32
AGUAAGCAAUAUUACGGGAC | -3.47 ± 0.26 | -2.45 ± 0.26
AGGAAGCAAUAUUACGCUUC | -2.44 ± 0.28 | –
GUAUAGCAAUAUUACGCGGG | -3.7 ± 0.27 | -2.23 ± 0.26
UGUAAGCAAUAUUACGGACA | -0.174 ± 0.16 | 0.153 ± 0.23
CCUAAGCAAUAUUACGUCUC | -3.01 ± 0.11 | -3.11 ± 0.19
AGCAAGCAAUAUUACGCCUA | -0.835 ± 0.08 | -0.537 ± 0.084
GGAUAGCAAUAUUACGUCAG | -2.87 ± 0.12 | -2.12 ± 0.23
GCGGAGCAAUAUUACGUCCA | -2.88 ± 0.33 | -0.822 ± 0.32
CAUCAGCAAUAUUACGCAUA | -1.59 ± 0.089 | -0.647 ± 0.1
CUUGAGCAAUAUUACGAAAC | -4 ± 0.33 | -2.78 ± 0.36
CCCCAGCAAUAUUACGGGUU | -3.63 ± 0.11 | -1.85 ± 0.092
UCGUAGCAAUAUUACGAAGC | – | -1.29 ± 0.35
CUUCAGCAAUAUUACGAGGG | -3.48 ± 0.22 | -2.31 ± 0.22
ACAUAGCAAUAUUACGGUGG | -3.62 ± 0.14 | -2.14 ± 0.12

Sequence | self-splicing fitness (ln) (30 °C) | self-splicing fitness (ln) (37 °C)
ACAGAGCAAUAUUACGAAAG | -3.24 ± 0.19 | -1.46 ± 0.16
GCAUAGCAAUAUUACGGUCG | -1.77 ± 0.12 | -1.12 ± 0.12
CUGUAGCAAUAUUACGGUCA | -2.29 ± 0.25 | -2.63 ± 0.34
ACGAAGCAAUAUUACGAGUU | -3.04 ± 0.11 | -1.91 ± 0.15
GGGUAGCAAUAUUACGAUAC | -1.98 ± 0.22 | -0.628 ± 0.24
UAUAAGCAAUAUUACGCGGC | -3.53 ± 0.35 | -2.92 ± 0.47
UCUCAGCAAUAUUACGAGGA | -3.23 ± 0.26 | -1.77 ± 0.14
ACGGAGCAAUAUUACGGAGA | – | -2.01 ± 0.46
GCUAAGCAAUAUUACGCACU | -0.54 ± 0.071 | 0.421 ± 0.11
UUGCAGCAAUAUUACGUUAG | -1.22 ± 0.053 | -0.899 ± 0.085
UUUCAGCAAUAUUACGAACA | -0.771 ± 0.13 | 0.793 ± 0.22
CAAAAGCAAUAUUACGAAGC | -4.63 ± 0.36 | -2.27 ± 0.21
UUGAAGCAAUAUUACGUACU | -0.493 ± 0.088 | -0.0917 ± 0.11
ACGGAGCAAUAUUACGCGUG | -2.24 ± 0.12 | -0.943 ± 0.11
UGCCAGCAAUAUUACGCGAG | -3.22 ± 0.17 | -2.92 ± 0.21
GUCGAGCAAUAUUACGAGAU | – | -2.45 ± 0.39
UGGUAGCAAUAUUACGCCUA | 0.144 ± 0.11 | 0.464 ± 0.12
UUCGAGCAAUAUUACGGGCG | -2.45 ± 0.2 | -1.01 ± 0.18
AAUGAGCAAUAUUACGCAUA | -2.52 ± 0.19 | -2.42 ± 0.24
AGGUAGCAAUAUUACGAGGA | -3.39 ± 0.034 | -2.43 ± 0.041
GCAAAGCAAUAUUACGUAUG | -2.9 ± 0.11 | -2.71 ± 0.2
ACUUAGCAAUAUUACGGUCG | -2.52 ± 0.17 | -1.35 ± 0.2
AGUAAGCAAUAUUACGAUCU | 0.14 ± 0.15 | -0.333 ± 0.14
AUGUAGCAAUAUUACGACUG | -0.943 ± 0.1 | -0.461 ± 0.1
UACUAGCAAUAUUACGCGGG | -3.19 ± 0.22 | -1.75 ± 0.2

Sequence | self-splicing fitness (ln) (30 °C) | self-splicing fitness (ln) (37 °C)
CAUGAGCAAUAUUACGCCGC | -3.56 ± 0.2 | -2.71 ± 0.22
CGCAAGCAAUAUUACGCAGG | -2.74 ± 0.12 | -1.01 ± 0.12
AUCAAGCAAUAUUACGGGUU | -3.44 ± 0.14 | -1.22 ± 0.11
UAGCAGCAAUAUUACGUUUC | -2.78 ± 0.29 | -1.85 ± 0.33
UCCUAGCAAUAUUACGCGGA | -3.3 ± 0.26 | -2.51 ± 0.25
GUACAGCAAUAUUACGAAUC | -2.65 ± 0.35 | -1.18 ± 0.18
GCGCAGCAAUAUUACGAUGU | -1.21 ± 0.077 | -0.279 ± 0.099
ACUGAGCAAUAUUACGACAG | -0.882 ± 0.091 | -0.105 ± 0.12
AAGCAGCAAUAUUACGGUAG | -3.38 ± 0.15 | -3.25 ± 0.2
CUGAAGCAAUAUUACGGAUU | -4.16 ± 0.17 | -3.01 ± 0.26
UAAGAGCAAUAUUACGAGGU | -3.48 ± 0.23 | -2.56 ± 0.27
CGCGAGCAAUAUUACGGACG | – | -1.75 ± 0.42
GCCCAGCAAUAUUACGUUAA | -1.6 ± 0.097 | -1.01 ± 0.089
GGCCAGCAAUAUUACGGUCG | -1.2 ± 0.14 | 0.113 ± 0.14
UUAAAGCAAUAUUACGUCCG | -0.581 ± 0.12 | 0.242 ± 0.15
AGAGAGCAAUAUUACGCGCC | -2.58 ± 0.46 | –
UAAGAGCAAUAUUACGUACU | -2.79 ± 0.25 | -0.993 ± 0.2
ACCCAGCAAUAUUACGUUGU | -0.339 ± 0.043 | -0.0259 ± 0.057
AGCUAGCAAUAUUACGAGAG | -2.83 ± 0.15 | -3.13 ± 0.28
CCCCAGCAAUAUUACGCUUC | -4.6 ± 0.32 | -2.39 ± 0.27
AUAUAGCAAUAUUACGAUCU | 0.333 ± 0.15 | 0.288 ± 0.13
GGGCAGCAAUAUUACGUAUC | -0.951 ± 0.068 | -0.0249 ± 0.1

From the supplement of paper PMC7877785
